Data from US20140127211A1.

What was measured:
[1] = biological target: full-length human Notch3 expressed on the cell surface (human) (UniProt Q9UM47); experiment: flow cytometry, negative control antibody, OVCAR3 cells
[2] = biological target: full-length human Notch3 expressed on the cell surface (human) (UniProt Q9UM47); experiment: flow cytometry, negative control antibody, HCC2429 cells
[3] = biological target: full-length human Notch3 expressed on the cell surface (human) (UniProt Q9UM47); experiment: flow cytometry, negative control antibody, MDA-MB-468 cells
[4] = biological target: full-length human Notch3 expressed on the cell surface (human) (UniProt Q9UM47); experiment: flow cytometry, negative control antibody, U2OS/hNotch3 cells
[5] = biological target: full-length human Notch3 expressed on the cell surface (human) (UniProt Q9UM47); experiment: flow cytometry, negative control antibody, MDA-MB-468/hNotch3 cells

Chain of full-length human Notch3 expressed on the cell surface (human) (Q9UM47 40-2321): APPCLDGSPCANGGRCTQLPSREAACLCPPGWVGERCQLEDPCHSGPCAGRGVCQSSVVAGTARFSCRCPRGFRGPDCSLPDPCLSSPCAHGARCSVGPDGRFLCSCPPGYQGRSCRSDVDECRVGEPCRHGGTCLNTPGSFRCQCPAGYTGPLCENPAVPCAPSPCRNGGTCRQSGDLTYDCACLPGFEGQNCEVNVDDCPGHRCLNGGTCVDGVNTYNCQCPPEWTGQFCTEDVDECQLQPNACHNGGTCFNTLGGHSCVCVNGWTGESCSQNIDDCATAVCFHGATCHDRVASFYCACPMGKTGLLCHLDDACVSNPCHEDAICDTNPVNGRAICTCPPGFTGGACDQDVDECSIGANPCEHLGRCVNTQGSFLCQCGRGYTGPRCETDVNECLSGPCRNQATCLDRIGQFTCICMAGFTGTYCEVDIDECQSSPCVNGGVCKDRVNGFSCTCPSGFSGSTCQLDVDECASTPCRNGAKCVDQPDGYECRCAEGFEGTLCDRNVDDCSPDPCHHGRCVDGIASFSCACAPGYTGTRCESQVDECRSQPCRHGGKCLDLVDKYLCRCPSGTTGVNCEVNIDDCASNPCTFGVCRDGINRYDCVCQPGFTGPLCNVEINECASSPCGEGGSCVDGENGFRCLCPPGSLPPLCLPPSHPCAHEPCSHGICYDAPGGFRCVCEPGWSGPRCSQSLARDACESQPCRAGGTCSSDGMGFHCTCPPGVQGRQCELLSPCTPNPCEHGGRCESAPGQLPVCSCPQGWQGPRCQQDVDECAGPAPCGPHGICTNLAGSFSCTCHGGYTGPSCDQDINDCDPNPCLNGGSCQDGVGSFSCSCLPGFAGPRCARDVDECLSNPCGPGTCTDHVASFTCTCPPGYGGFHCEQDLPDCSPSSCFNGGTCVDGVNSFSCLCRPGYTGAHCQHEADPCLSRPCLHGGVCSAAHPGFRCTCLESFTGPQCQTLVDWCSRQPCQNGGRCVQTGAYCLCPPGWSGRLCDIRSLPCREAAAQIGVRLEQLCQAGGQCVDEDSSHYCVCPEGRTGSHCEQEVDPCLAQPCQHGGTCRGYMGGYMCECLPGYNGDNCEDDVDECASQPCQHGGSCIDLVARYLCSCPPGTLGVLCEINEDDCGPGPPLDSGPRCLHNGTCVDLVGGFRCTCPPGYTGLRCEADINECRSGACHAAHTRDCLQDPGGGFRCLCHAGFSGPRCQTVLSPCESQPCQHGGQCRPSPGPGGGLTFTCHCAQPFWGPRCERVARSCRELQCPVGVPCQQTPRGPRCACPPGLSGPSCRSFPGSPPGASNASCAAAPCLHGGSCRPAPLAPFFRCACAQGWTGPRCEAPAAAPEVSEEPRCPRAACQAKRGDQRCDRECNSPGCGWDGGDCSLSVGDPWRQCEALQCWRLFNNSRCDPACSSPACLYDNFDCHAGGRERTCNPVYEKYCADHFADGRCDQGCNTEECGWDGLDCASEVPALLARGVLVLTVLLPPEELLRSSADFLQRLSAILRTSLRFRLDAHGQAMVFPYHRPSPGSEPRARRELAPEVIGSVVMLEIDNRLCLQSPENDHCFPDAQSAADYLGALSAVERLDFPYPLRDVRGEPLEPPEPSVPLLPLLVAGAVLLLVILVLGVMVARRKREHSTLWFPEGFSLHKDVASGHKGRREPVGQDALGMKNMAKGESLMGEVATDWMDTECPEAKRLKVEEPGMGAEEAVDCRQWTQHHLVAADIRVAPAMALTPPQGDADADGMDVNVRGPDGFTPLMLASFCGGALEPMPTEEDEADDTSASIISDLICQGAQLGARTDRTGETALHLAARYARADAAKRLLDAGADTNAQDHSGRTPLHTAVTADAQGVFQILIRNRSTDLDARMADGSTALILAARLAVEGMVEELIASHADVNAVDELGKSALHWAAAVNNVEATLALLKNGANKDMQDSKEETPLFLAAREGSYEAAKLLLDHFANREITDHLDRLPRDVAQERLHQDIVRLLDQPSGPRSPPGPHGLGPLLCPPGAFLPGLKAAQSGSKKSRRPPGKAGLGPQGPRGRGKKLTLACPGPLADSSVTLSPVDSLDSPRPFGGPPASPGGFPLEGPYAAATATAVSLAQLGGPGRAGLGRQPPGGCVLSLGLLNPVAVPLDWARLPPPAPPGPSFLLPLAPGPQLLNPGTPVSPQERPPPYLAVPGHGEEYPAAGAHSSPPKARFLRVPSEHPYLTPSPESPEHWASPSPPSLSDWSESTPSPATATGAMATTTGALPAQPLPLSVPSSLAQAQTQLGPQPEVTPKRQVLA

MFI [1]: 5 MFI | MFI [2]: 3 MFI | MFI [3]: 6 MFI | MFI [4]: 6 MFI | MFI [5]: 6 MFI
Substance: huNeg8.8 negative control antibody
